# B1: wild-type MORC2 901-1032 with Trx-tag [human] / itself (parent)
# chain: LSTNHETIDLLVQILRNCLRYFLPPSFPISKKQLSAMNSDELISFPLKEYFKQYEVGLQNLCNSYQSRADSRAKASEESLRTSERKLRETEEKLQKLRTNIVALLQKVQEDIDINTDDELDAYIEDLITKGD
# Variants of: B1
# Experiment: static light-scattering (SLS) coupled to size-exclusion chromatography
# Conditions: with itself; Trx tag (14 kDa) kept on constructs
row,Variant,molecular mass [kDa]
1,chain 1 F22Q,113
2,chain 1 L11Q,79.8
